Experimental data: paper PMC5664961 (2017)

Target: human Cul3 N-terminal domain (NTD, residues M1-L388) with the engineered mutations I342R and L346D (human, UniProt Q13618 1-388, I342R | L346D)
Test: ITC

Sequence of human Cul3 N-terminal domain (NTD, residues M1-L388) with the engineered mutations I342R and L346D (Q13618 1-388 I342R/L346D): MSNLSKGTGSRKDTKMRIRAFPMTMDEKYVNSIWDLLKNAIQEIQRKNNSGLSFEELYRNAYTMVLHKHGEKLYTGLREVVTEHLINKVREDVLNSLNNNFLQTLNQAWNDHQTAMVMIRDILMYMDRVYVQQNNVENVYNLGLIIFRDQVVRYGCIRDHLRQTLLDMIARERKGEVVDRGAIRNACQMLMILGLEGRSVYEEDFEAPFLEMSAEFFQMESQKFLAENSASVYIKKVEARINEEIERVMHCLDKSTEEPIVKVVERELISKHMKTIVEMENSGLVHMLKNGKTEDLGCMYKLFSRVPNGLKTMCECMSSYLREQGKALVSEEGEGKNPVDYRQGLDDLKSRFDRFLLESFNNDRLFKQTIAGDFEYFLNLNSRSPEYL

B1: KCTD17 BTB + CTD multi-domain construct (residues G20-Q220), tag cleaved (domain or fragment)
chain: SMGAGGRAAGGWGKWVRLNVGGTVFLTTRQTLCREQKSFLSRLCQGEELQSDRDETGAYLIDRDPTYFGPILNFLRHGKLVLDKDMAEEGVLEEAEFYNIGPLIRIIKDRMEEKDYTVTQVPPKHVYRVLQCQEEELTQMVSTMSDGWRFEQLVNIGSSYNYGSEDQAEFLCVVSKELHSTPNGLSSESSRKTKSTEEQLEEQ
Kd: 12 nM
